± gives the uncertainty stated by the source.
test: abundance fitness (aPCA) (normalised: wild type 0, dead -1); higher = more abundant; growth selection in yeast, the domain comes from the species named; details: Homo sapiens

Substance | abundance fitness
DnaJ homolog subfamily B member 1 P33G, P25685 | 0.017 ± 0.064
DnaJ homolog subfamily B member 1 P33H, P25685 | -0.292 ± 0.15
DnaJ homolog subfamily B member 1 P33I, P25685 | -0.085 ± 0.097
DnaJ homolog subfamily B member 1 P33L, P25685 | -0.091 ± 0.056
DnaJ homolog subfamily B member 1 P33M, P25685 | 0.039 ± 0.079
DnaJ homolog subfamily B member 1 P33N, P25685 | -0.009 ± 0.094
DnaJ homolog subfamily B member 1 P33Q, P25685 | 0.057 ± 0.1
DnaJ homolog subfamily B member 1 P33R, P25685 | -0.06 ± 0.078
DnaJ homolog subfamily B member 1 P33S, P25685 | 0.018 ± 0.083
DnaJ homolog subfamily B member 1 P33V, P25685 | -0.078 ± 0.076
DnaJ homolog subfamily B member 1 P33W, P25685 | -0.455 ± 0.096
DnaJ homolog subfamily B member 1 P33Y, P25685 | -0.245 ± 0.11
DnaJ homolog subfamily B member 1 P39A, P25685 | -0.037 ± 0.074
DnaJ homolog subfamily B member 1 P39C, P25685 | -0.016 ± 0.15
DnaJ homolog subfamily B member 1 P39D, P25685 | -0.339 ± 0.27
DnaJ homolog subfamily B member 1 P39E, P25685 | 0.064 ± 0.097
DnaJ homolog subfamily B member 1 P39F, P25685 | -0.041 ± 0.2
DnaJ homolog subfamily B member 1 P39G, P25685 | -0.287 ± 0.16
DnaJ homolog subfamily B member 1 P39H, P25685 | 0.054 ± 0.28
DnaJ homolog subfamily B member 1 P39I, P25685 | -0.038 ± 0.15
DnaJ homolog subfamily B member 1 P39K, P25685 | 0.027 ± 0.14
DnaJ homolog subfamily B member 1 P39N, P25685 | 0.035 ± 0.12
DnaJ homolog subfamily B member 1 P39R, P25685 | 0.041 ± 0.1
DnaJ homolog subfamily B member 1 P39S, P25685 | -0.078 ± 0.069
DnaJ homolog subfamily B member 1 P39T, P25685 | 0.133 ± 0.13
DnaJ homolog subfamily B member 1 P39V, P25685 | 0.001 ± 0.12

Substance | abundance fitness
DnaJ homolog subfamily B member 1 P39W, P25685 | 0.026 ± 0.12
DnaJ homolog subfamily B member 1 P39Y, P25685 | -0.222 ± 0.14
DnaJ homolog subfamily B member 1 P58A, P25685 | -0.081 ± 0.09
DnaJ homolog subfamily B member 1 P58C, P25685 | -0.256 ± 0.22
DnaJ homolog subfamily B member 1 P58D, P25685 | -0.332 ± 0.14
DnaJ homolog subfamily B member 1 P58E, P25685 | -0.149 ± 0.086
DnaJ homolog subfamily B member 1 P58F, P25685 | -0.407 ± 0.25
DnaJ homolog subfamily B member 1 P58G, P25685 | -0.238 ± 0.079
DnaJ homolog subfamily B member 1 P58H, P25685 | -0.192 ± 0.19
DnaJ homolog subfamily B member 1 P58I, P25685 | -0.256 ± 0.16
DnaJ homolog subfamily B member 1 P58K, P25685 | 0.021 ± 0.31
DnaJ homolog subfamily B member 1 P58L, P25685 | -0.163 ± 0.057
DnaJ homolog subfamily B member 1 P58N, P25685 | -0.306 ± 0.2
DnaJ homolog subfamily B member 1 P58Q, P25685 | -0.18 ± 0.097
DnaJ homolog subfamily B member 1 P58R, P25685 | -0.11 ± 0.073
DnaJ homolog subfamily B member 1 P58S, P25685 | -0.112 ± 0.089
DnaJ homolog subfamily B member 1 P58T, P25685 | -0.143 ± 0.14
DnaJ homolog subfamily B member 1 P58V, P25685 | -0.191 ± 0.094
DnaJ homolog subfamily B member 1 P58W, P25685 | -0.236 ± 0.085
DnaJ homolog subfamily B member 1 P58Y, P25685 | -0.229 ± 0.13
DnaJ homolog subfamily B member 1 Q7A, P25685 | -0.386 ± 0.12
DnaJ homolog subfamily B member 1 Q7C, P25685 | 0.031 ± 0.13
DnaJ homolog subfamily B member 1 Q7E, P25685 | -0.547 ± 0.13
DnaJ homolog subfamily B member 1 Q7F, P25685 | 0.066 ± 0.11
DnaJ homolog subfamily B member 1 Q7G, P25685 | -0.315 ± 0.21
DnaJ homolog subfamily B member 1 Q7H, P25685 | -0.246 ± 0.15

Substance | abundance fitness
DnaJ homolog subfamily B member 1 Q7I, P25685 | -0.144 ± 0.17
DnaJ homolog subfamily B member 1 Q7K, P25685 | -0.014 ± 0.12
DnaJ homolog subfamily B member 1 Q7L, P25685 | -0.049 ± 0.057
DnaJ homolog subfamily B member 1 Q7N, P25685 | 0.019 ± 0.13
DnaJ homolog subfamily B member 1 Q7P, P25685 | -0.567 ± 0.088
DnaJ homolog subfamily B member 1 Q7R, P25685 | -0.185 ± 0.071
DnaJ homolog subfamily B member 1 Q7S, P25685 | -0.286 ± 0.081
DnaJ homolog subfamily B member 1 Q7T, P25685 | -0.008 ± 0.078
DnaJ homolog subfamily B member 1 Q7V, P25685 | -0.307 ± 0.087
DnaJ homolog subfamily B member 1 Q7W, P25685 | -0.207 ± 0.15
DnaJ homolog subfamily B member 1 Q7Y, P25685 | 0.022 ± 0.13
DnaJ homolog subfamily B member 1 Q27A, P25685 | -0.15 ± 0.11
DnaJ homolog subfamily B member 1 Q27C, P25685 | 0.012 ± 0.14
DnaJ homolog subfamily B member 1 Q27D, P25685 | 0.003 ± 0.15
DnaJ homolog subfamily B member 1 Q27E, P25685 | -0.231 ± 0.36
DnaJ homolog subfamily B member 1 Q27F, P25685 | -0.115 ± 0.13
DnaJ homolog subfamily B member 1 Q27G, P25685 | -0.277 ± 0.093
DnaJ homolog subfamily B member 1 Q27H, P25685 | -0.168 ± 0.18
DnaJ homolog subfamily B member 1 Q27I, P25685 | -0.057 ± 0.12
DnaJ homolog subfamily B member 1 Q27K, P25685 | -0.021 ± 0.17
DnaJ homolog subfamily B member 1 Q27L, P25685 | -0.121 ± 0.094
DnaJ homolog subfamily B member 1 Q27M, P25685 | -0.054 ± 0.14
DnaJ homolog subfamily B member 1 Q27N, P25685 | -0.14 ± 0.12
DnaJ homolog subfamily B member 1 Q27R, P25685 | -0.215 ± 0.066
DnaJ homolog subfamily B member 1 Q27T, P25685 | -0.266 ± 0.12
DnaJ homolog subfamily B member 1 Q27W, P25685 | -0.064 ± 0.098

Substance | abundance fitness
DnaJ homolog subfamily B member 1 Q27Y, P25685 | -0.056 ± 0.28
DnaJ homolog subfamily B member 1 R13A, P25685 | -0.148 ± 0.081
DnaJ homolog subfamily B member 1 R13C, P25685 | -0.262 ± 0.12
DnaJ homolog subfamily B member 1 R13D, P25685 | -0.117 ± 0.22
DnaJ homolog subfamily B member 1 R13E, P25685 | -0.142 ± 0.089
DnaJ homolog subfamily B member 1 R13F, P25685 | -0.15 ± 0.1
DnaJ homolog subfamily B member 1 R13G, P25685 | -0.305 ± 0.064
DnaJ homolog subfamily B member 1 R13H, P25685 | -0.191 ± 0.16
DnaJ homolog subfamily B member 1 R13I, P25685 | -0.221 ± 0.15
DnaJ homolog subfamily B member 1 R13K, P25685 | -0.097 ± 0.089
DnaJ homolog subfamily B member 1 R13L, P25685 | -0.191 ± 0.066
DnaJ homolog subfamily B member 1 R13M, P25685 | -0.219 ± 0.092
DnaJ homolog subfamily B member 1 R13N, P25685 | -0.091 ± 0.11
DnaJ homolog subfamily B member 1 R13P, P25685 | -0.177 ± 0.088
DnaJ homolog subfamily B member 1 R13Q, P25685 | 0.048 ± 0.2
DnaJ homolog subfamily B member 1 R13S, P25685 | -0.182 ± 0.056
DnaJ homolog subfamily B member 1 R13T, P25685 | -0.138 ± 0.089
DnaJ homolog subfamily B member 1 R13V, P25685 | -0.157 ± 0.065
DnaJ homolog subfamily B member 1 R13W, P25685 | -0.434 ± 0.08
DnaJ homolog subfamily B member 1 R13Y, P25685 | -0.279 ± 0.091
DnaJ homolog subfamily B member 1 R25A, P25685 | 0.011 ± 0.079
DnaJ homolog subfamily B member 1 R25C, P25685 | -0.22 ± 0.14
DnaJ homolog subfamily B member 1 R25D, P25685 | -0.15 ± 0.13
DnaJ homolog subfamily B member 1 R25E, P25685 | 0.173 ± 0.082
DnaJ homolog subfamily B member 1 R25F, P25685 | -0.199 ± 0.12
DnaJ homolog subfamily B member 1 R25G, P25685 | -0.007 ± 0.12

From the Human Domainome abundance scans (Beltran et al. 2025)
